In patent US6383734B1, “Method to determine inhibition of PAK3 activation of Raf-1” (Advanced Research and Technology Institute, Inc., priority 1998, dated 2002):

Test system: Raf-1 serine 338/339
Assay: In vitro kinase assay with Raf-1 peptide and Raf-CR3 as substrates
Assay type: biochemical, human
Conditions: PAK3 immunoprecipitated from rat spleen lysates, FIG. 4b
Description: B. Kinase assays. Kinase samples were assessed for their ability to phosphorylate 500 μM Raf-1 peptide (33,[…]345) (SEQ ID NO:4) in the presence of 500 μMATP (containing 2 μCi [γ-^32P]-ATP at 30° C. for 10 minutes. Incubations were analyzed by P-81 phosphocellulose paper assay. Phosphorylation of serine 338/339 in Raf-CR3 was determined by similar incubations containing 1 μg of substrate at 30° C. for 30-60 minutes. Proteins were resolved by SDS-PAGE, transferred to Immobilon-P and the dried, Ponceau S-stained membranes were autoradiographed. Raf-1 kinase activity was measured by the coupled assay method using GST-Mek 1, GST-Erk1 and myelin basic protein by the method of D. Stokoe et al., Science, 264, 1463 (1994).
D. Expression of recombinant Raf-CR3 in E. Coli. DNA sequences encoding residues 307-648 of human c-Raf-1 were amplified by polymerase chain reaction using the 5′-primer […] (SEQ ID NO:5) and the 3′-primer […] (SEQ ID NO:6). The amplified DNA was purified, digested with EcoRI and XhoI and cloned into the Stratagene pCAL-n vector. The entire Raf-CR3 coding sequence was verified by termination reaction PCR DNA sequencing. Raf-CR3 D338E339 and A338A339 substitution mutants were generated by site-directed mutagenesis using the Promega Altered SitesTM in vitro mutagenesis system. Raf-CR3-calmodulin binding protein fusions were expressed in E. coli strain BL21 (pLysS). […]

B1: Immunoprecipitated PAK3: full-length PAK3 immunoprecipitated directly from rat spleen lysates with an anti-PAK3 antibody (protein)
chain: SDNGELEDKPPAPPVRMSSTIFSTGGKDPLSANHSLKPLPSVPEEKKPRNKIISIFSSTEKGSKKKEKERPEISPPSDFEHTIHVGFDAVTGEFTGMPEQWARLLQTSNITKLEQKKNPQAVLDVLKFYDSNTVKQKYLSFTPPEKDGFPSGTPALNTKGSETSAVVTEEDDDDEDAAPPVIAPRPDHTKSIYTRSVIDPIPAPVGDSNVDSGAKSSDKQKKKAKMTDEEIMEKLRTIVSIGDPKKKYTRYEKIGQGASGTVFTATDVALGQEVAIKQINLQKQPKKELIINEILVMKELKNPNIVNFLDSYLVGDELFVVMEYLAGGSLTDVVTETCMDEAQIAAVCRECLQALEFLHANQVIHRDIKSDNVLLGMEGSVKLTDFGFCAQITPEQSKRSTMVGTPYWMAPEVVTRKAYGPKVDIWSLGIMAIEMVEGEPPYLNENPLRALYLIATNGTPELQNPEKLSPIFRDFLNRCLEMDVEKRGSAKELLQHPFLKLAKPLSSLTPLILAAKEAMKSNR
For B1, the “phosphate incorporated into wild type Raf-CR3 versus Raf-CR3[D338E339] or Raf-CR3[A338A339] mutants” value was 4 fold.
